Values joined by “and” are separate entries in the source; they are usually repeats but may differ in a detail not shown here. Equal values may be shown once.
Experiments:
[1] = target: MMOH protomer (αβγ) from Methylosinus sporium 5 (Methylosinus sporium 5); experiment: cryo-EM structure
[2] = target: soluble methane monooxygenase hydroxylase (MMOH), α2β2γ2, from Methylosinus sporium 5 (Methylosinus sporium 5); experiment: cryo-EM structure

stoichiometry N [1] | stoichiometry N [2] | Substance
2 |  | MMOH protomer (αβγ) from Methylosinus sporium 5 (from UniProt A0ACH3GMT4 1-520) (complex)
 | 1 and 2 | regulatory component of soluble methane monooxygenase (MMOB) from Methylosinus sporium 5 (natural protein)
